We go through one molecule from patent publication US20220017612A1 (TILOS THERAPEUTICS, published 2022).

The target in experiment [1] is T1, LAP-TGFβ1 on U937 cells (Homo sapiens, UniProt P01137).
T1 construct: cell surface, endogenous; also called LAP+ U937 cells
Put plainly: flow cytometry, U937 cells, Alexa 647 antibody, % LAP+ cells. How it is done: (§1) Anti-LAP antibodies were tested for their ability to bind to U937 cells, a myeloid cell line derived from a patient with histiocytic lymphoma. U937 cells were incubated with FACS buffer and human Fc block followed by incubation with varying concentrations of Alexa 647 conjugated 28G11_hyb, 22F9_mIgG2a, or 20E6_mIgG2a. In a separate experiment U937 cells were incubated with FACS buffer and human Fc block followed by incubation with 10 ug/ml of Alexa 647 conjugated 28G11_hyb, 22F9_mIgG2a, 20E6_mIgG2a or mIgG2a isotype control (FIGS. 10E and 10F). Representative dot plots are shown in FIG. 10G; in these plots, antibodies were at 10 ug/ml.
For orientation: In flow cytometry, cells or beads pass a laser one at a time.

Experiment [2] has as its target T2, chicken LAP-TGFβ1 on HT1080 cells (chicken, UniProt P09531 19-391).
T2 construct: also called chB1
T2 sequence: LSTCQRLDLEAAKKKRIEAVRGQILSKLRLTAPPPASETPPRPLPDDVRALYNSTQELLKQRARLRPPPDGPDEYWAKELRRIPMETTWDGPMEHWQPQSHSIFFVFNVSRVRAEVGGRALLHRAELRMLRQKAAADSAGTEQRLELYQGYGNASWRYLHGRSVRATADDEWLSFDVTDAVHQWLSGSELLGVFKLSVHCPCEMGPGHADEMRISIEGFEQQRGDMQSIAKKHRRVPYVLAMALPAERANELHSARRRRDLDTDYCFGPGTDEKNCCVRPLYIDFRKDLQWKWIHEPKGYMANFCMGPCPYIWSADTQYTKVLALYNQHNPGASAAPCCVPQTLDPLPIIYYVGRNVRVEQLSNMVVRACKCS
Briefly: flow cytometry, HT1080 cells. On the procedure:
(§2) These constructs were subcloned into lentivirus and transduced into HT1080 cells. Successful gene integration was confirmed by expression of a green fluorescent protein (GFP) reporter gene. LAP-TGFβ1 expression was evaluated by flow cytometry using a rabbit monoclonal antibody (Rmab) raised against a peptide from the mature cytokine (residues 250-361) domain (Abeam cat #ab179695), 28G11_(hyb) and 2C9_(hyb). Briefly, 4×10⁵ each of (a) HT1080 cells, (b) HT1080 cells overexpressing human LAP-TGFβ1, (c) HT1080 cells overexpressing chicken LAP-TGFβ1, and (d) HT1080 cells overexpressing human/chicken chimeras #1-#7 were cultured in 96-well plates. The plates were centrifuged for 5 min at 1,500 rpm, liquid was removed, and cells were resuspended with 200 μL FACS buffer. The plates were centrifuged again, diluted primary antibody was added to each well, and the plates were incubated on ice for 20 minutes, followed by centrifugation. The cells were resuspended in 200 μL FACS buffer, centrifuged again, and resuspended in 50 μL diluted secondary antibody (APC-anti-Mouse IgG). The plates were incubated on ice for 20 minutes in the dark, washed twice with 200 μL FACS buffer, and cells from each well (in 200 μL FACS buffer) were read on the Attune NXT instrument. The antibodies were considered to be binding if >10% of cells were GFP+/APC+ and there was visible correlation between the GFP and allophycocyanin (APC) signals (Table 5).

For experiment [3], the target named is T3, human-chicken LAP-TGFβ1 chimera #2.1 on HT1080 cells (human/chicken chimera, UniProt P01137 30-390). Put plainly: flow cytometry, HT1080 cells. How it is done: as §2
Experiment [4] deals with T4, human-chicken LAP-TGFβ1 chimera #2.2 on HT1080 cells (human/chicken chimera, UniProt P01137 30-390).
T4 construct: also called HT1080-ch2.2
Put plainly: flow cytometry, HT1080 cells. On the procedure:
as §2

Experiment [5] addresses T5, human-chicken LAP-TGFβ1 chimera #2.3 on HT1080 cells (human/chicken chimera, UniProt P01137 30-390).
T5 construct: also called HT1080-ch2.3
Briefly: flow cytometry, transduced HT1080 cells. On the procedure: as §2

The target in experiment [6] is human-chicken LAP-TGFβ1 chimera #5 on HT1080 cells (human/chicken chimera). Briefly: flow cytometry, transduced HT1080 cells. On the procedure: as §2
For experiment [7], the target named is human-chicken LAP-TGFβ1 chimera #6 on HT1080 cells (human/chicken chimera, UniProt P01137 30-390). Briefly: flow cytometry, transduced HT1080 cells. On the procedure:
as §2

Experiment [8] concerns the target human-chicken LAP-TGFβ1 chimera #1.3 on HT1080 cells (human/chicken chimera, UniProt P01137 30-390). Put plainly: flow cytometry, transduced HT1080 cells. How it is done: as §2
Experiment [9] addresses human-chicken LAP-TGFβ1 chimera #7 on HT1080 cells (human/chicken chimera, UniProt P01137 30-390). Briefly: flow cytometry, transduced HT1080 cells. How it is done: as §2
Experiment [10] addresses T2, chicken LAP-TGFβ1 on HT1080 cells. Briefly: flow cytometry, transduced HT1080 cells. On the procedure:
as §2

Experiment [11] concerns the target T3, human-chicken LAP-TGFβ1 chimera #2.1 on …. Put plainly: flow cytometry, transduced HT1080 cells. How it is done:
as §2

The target of experiment [12] is human-chicken LAP-TGFβ1 chimera #1.2 on HT1080 cells (human/chicken chimera, UniProt P01137 30-390). Put plainly: flow cytometry, transduced HT1080 cells. How it is done:
as §2

In experiment [13] the target is T4, human-chicken LAP-TGFβ1 chimera #2.2 on …. Put plainly: flow cytometry, transduced HT1080 cells. On the procedure:
as §2

Experiment [14] concerns the target human-chicken LAP-TGFβ1 chimera #3 on HT1080 cells (human/chicken chimera, UniProt P01137 30-390). Briefly: flow cytometry, transduced HT1080 cells. How it is done: as §2
Experiment [15] concerns the target T6, human-chicken LAP-TGFβ1 chimera #4 on HT1080 cells (human/chicken chimera, UniProt P01137 30-390).
T6 construct: also called HT1080-ch4
Briefly: flow cytometry, transduced HT1080 cells. On the procedure:
as §2

The target of experiment [16] is T7, human LAP-TGFβ1 overexpressed on cells (human, UniProt P01137 30-390).
T7 construct: HT1080 or P3U1 cells overexpressing wild-type human LAP-TGFβ1; also called HT1080-huB1; HT1080-hβ1
Briefly: flow cytometry, transduced HT1080 cells. On the procedure:
as §2

Experiment [17] deals with T1, LAP-TGFβ1 on U937 cells. Put plainly: flow cytometry dot plot against GARP, U937 cells, Alexa 647 antibody at 10 ug/ml. On the procedure: as §1

As usually defined, the EC50 (read off the curve) is the concentration giving half of the maximal effect. Read a low EC50 (read off the curve) as an effect from little substance.

T1 sequence (P01137 30-390 limits assumed): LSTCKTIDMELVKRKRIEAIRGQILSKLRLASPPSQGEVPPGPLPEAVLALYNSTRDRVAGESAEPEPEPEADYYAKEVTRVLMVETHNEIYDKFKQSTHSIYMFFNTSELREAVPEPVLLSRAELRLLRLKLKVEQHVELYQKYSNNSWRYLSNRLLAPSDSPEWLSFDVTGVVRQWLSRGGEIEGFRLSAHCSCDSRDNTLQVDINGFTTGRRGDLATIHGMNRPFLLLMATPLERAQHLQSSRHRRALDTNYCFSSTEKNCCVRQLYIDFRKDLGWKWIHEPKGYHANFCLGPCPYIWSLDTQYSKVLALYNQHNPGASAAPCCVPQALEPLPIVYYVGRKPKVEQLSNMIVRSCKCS
T4 sequence (P01137 other isoform, or with tags, fused parts or gaps mutant): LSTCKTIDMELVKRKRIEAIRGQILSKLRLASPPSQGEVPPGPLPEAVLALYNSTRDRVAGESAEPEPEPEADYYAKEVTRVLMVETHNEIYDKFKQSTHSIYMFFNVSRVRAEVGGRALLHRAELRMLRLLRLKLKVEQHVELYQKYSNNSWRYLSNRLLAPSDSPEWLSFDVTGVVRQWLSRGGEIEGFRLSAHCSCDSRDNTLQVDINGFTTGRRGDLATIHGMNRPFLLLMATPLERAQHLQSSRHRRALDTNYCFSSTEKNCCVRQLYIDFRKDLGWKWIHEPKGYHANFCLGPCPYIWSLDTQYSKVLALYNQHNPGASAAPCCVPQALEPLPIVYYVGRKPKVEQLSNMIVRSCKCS
T3 sequence (P01137 other isoform, or with tags, fused parts or gaps mutant): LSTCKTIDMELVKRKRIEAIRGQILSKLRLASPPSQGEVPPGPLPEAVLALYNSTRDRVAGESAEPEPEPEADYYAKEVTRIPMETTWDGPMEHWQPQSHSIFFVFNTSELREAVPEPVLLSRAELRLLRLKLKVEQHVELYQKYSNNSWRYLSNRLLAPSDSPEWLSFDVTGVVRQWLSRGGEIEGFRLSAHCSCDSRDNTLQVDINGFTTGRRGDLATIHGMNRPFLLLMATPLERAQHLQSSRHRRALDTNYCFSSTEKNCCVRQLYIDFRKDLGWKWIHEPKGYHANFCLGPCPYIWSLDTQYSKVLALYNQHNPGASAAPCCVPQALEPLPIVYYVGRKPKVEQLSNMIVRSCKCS
Chain of human-chicken LAP-TGFβ1 chimera #1.3 on HT1080 cells (P01137 other isoform, or with tags, fused parts or gaps mutant): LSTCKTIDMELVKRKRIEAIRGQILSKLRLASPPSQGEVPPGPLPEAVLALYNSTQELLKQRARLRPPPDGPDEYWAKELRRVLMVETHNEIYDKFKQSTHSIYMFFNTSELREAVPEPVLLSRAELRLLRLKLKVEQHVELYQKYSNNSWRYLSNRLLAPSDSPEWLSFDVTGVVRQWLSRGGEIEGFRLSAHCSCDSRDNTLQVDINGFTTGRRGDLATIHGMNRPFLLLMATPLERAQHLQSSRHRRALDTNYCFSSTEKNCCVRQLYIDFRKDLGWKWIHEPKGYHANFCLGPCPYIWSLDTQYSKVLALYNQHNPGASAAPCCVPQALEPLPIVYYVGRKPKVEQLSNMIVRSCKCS
T7 sequence (P01137 30-390): as the sequence (P01137 30-390 limits assumed) above
Chain of human-chicken LAP-TGFβ1 chimera #3 on HT1080 cells (P01137 other isoform, or with tags, fused parts or gaps mutant): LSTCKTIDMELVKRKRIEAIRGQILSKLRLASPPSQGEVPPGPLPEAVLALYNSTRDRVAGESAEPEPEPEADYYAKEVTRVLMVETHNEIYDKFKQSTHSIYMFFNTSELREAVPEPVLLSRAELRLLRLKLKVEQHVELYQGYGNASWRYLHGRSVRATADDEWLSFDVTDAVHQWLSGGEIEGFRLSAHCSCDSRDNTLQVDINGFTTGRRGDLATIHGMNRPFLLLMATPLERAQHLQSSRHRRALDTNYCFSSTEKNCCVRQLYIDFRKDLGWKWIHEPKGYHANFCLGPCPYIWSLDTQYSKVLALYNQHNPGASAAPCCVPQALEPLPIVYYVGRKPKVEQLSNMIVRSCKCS
T6 sequence (P01137 other isoform, or with tags, fused parts or gaps mutant): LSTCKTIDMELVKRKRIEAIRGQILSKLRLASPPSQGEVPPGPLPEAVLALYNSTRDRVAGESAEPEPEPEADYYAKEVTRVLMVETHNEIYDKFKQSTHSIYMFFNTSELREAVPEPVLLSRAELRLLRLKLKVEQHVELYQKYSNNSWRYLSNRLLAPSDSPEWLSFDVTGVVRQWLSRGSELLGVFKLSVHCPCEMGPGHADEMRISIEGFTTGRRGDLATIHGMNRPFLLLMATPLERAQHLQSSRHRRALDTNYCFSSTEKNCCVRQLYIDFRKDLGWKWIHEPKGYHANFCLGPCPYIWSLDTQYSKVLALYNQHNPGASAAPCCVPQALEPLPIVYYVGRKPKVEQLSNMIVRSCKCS
T5 sequence (P01137 other isoform, or with tags, fused parts or gaps mutant): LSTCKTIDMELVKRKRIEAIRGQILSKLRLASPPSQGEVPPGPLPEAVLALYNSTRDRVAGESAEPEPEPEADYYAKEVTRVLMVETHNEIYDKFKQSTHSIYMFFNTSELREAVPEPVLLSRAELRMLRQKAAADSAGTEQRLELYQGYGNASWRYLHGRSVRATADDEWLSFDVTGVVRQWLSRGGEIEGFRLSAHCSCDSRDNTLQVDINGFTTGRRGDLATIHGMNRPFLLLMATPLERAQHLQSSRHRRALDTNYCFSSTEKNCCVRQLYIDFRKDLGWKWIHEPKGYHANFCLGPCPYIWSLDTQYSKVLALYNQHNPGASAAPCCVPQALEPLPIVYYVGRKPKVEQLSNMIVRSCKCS
Chain of human-chicken LAP-TGFβ1 chimera #1.2 on HT1080 cells (P01137 other isoform, or with tags, fused parts or gaps mutant): as the sequence (P01137 30-390 limits assumed) above, with A31T, S32A, S35P, Q36A, G37S, V39T, G42R, E46D, A47D, L49R counted along it
Chain of human-chicken LAP-TGFβ1 chimera #5 on HT1080 cells (human/chicken chimera) (chain, as listed by the source mutant limits assumed): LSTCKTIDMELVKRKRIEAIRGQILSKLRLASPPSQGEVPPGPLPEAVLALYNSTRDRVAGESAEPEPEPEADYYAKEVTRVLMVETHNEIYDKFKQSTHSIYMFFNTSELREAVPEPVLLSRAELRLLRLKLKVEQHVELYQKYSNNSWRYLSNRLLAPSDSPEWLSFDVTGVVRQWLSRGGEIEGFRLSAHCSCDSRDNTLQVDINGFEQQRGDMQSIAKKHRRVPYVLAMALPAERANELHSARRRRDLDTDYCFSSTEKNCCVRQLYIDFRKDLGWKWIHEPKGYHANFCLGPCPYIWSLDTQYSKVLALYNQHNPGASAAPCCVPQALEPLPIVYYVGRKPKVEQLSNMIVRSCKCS
Chain of human-chicken LAP-TGFβ1 chimera #6 on HT1080 cells (P01137 other isoform, or with tags, fused parts or gaps mutant): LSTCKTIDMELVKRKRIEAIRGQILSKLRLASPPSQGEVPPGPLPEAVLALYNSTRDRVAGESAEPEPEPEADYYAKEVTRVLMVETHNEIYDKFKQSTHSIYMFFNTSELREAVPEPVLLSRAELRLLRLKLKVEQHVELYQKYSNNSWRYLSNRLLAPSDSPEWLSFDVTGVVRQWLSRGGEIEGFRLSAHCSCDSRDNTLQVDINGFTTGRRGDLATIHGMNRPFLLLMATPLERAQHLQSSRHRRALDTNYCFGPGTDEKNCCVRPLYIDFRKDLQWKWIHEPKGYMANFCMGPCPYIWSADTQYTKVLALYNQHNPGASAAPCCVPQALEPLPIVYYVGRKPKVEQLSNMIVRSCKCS

B1: 28G11_(hyb) (antibody, mouse IgG2b, kappa, V domains shown)
VH: EVKLVESGGGLVQPGGSLSLSCAASGFTFTDYYMSWVRQPPGKALEWLGFIRNKPNGYTTEYSASVKGRFTISRDNSQSILYLQMNVLRAEDSATYYCARYTGGGYFDYWGQGTTLTVSS
VL: DIQMTQTTSSLSASLGDRLTISCRASQDISNYLNWYQQKPDGTVKLLIYYTSRLHSGVPSRFSGSGSGTDYSLTISNLEQADIATYFCQQGDTLPWTFGGGTKLEIKR
notes: parental murine antibody; also called murine hybridoma 28G11; biotin-28G11
Take B1: in the experiment with LAP-TGFβ1 on U937 cells [1], the “EC50 (read off the curve)” value is around 30 µg/mL. For the same molecule, the binding result in experiment [2], in experiment [3] and in experiment [4] was “no binding” in each case. The “% GFP+/APC+ cells” value is 94.7% in experiment [5]; 41.7% in experiment [6]; 84.9% in experiment [7]; 83% in experiment [8]; 44.4% in [9]; 0.3% in experiment [10]. Also, the “% GFP+/APC+ cells” value was 3.5% in experiment [11]; 84.1% in experiment [12]; 0.5% in [13]; 32.2% in [14]; 76.2% in [15]; 98.3% in [16]. The “% of cells in Q1 (antibody axis positive, GARP negative)” value with LAP-TGFβ1 on U937 cells [17] came to 6.56%. Moreover, in the experiment with LAP-TGFβ1 on U937 cells [17], the “% of cells in Q2 (antibody axis positive, GARP positive)” value turned out to be 0.16%.
